3 molecules from US20260125472A1 (HEFEI TG IMMUNOPHARMA, published 2026) can be followed below.

In one assay the target is T1, CD3E&D protein (UniProt P04234 22-105).
T1 construct: Purchased from Acro; also called CD3 E&D antigens; CD3E&D antigen protein
Nature of the assay: ELISA, coated CD3E&D protein, OD450. An excerpt: (§1) In this example, the binding properties of the CD3×Trop2 and CD3×PDL1 bispecific antibody (the production method and the amino acid sequences of the heavy and light chains were shown in Example 1) were detected by using ELISA. The CD3E&D, Trop2, or PDL1 protein was coated onto 96-well plates by inventors, and the strength of the signal after the addition of the antibody was used to determine the binding properties of the antibody and the corresponding protein.
(1) CD3E&D protein (purchased from Acro) was diluted to 2 μg/ml with PBS buffer, added to a 96-well plate at a volume of 100 μL/well, and placed at 4° C. overnight. The PBS buffer in the 96-well plate was aspirated, and the plate was washed 6 times with PBST (pH 7.2 PBS containing 0.1% Tween 20) buffer. Then, 200 μL/well PBS/10% BSA was added and incubated at 37° C. for 2 h for blocking. The blocking solution was removed, and the plate was washed 6 times with PBST. […] The absorbance was read at 450 nm using a microplate reader.
On the technique in general: ELISA stands for enzyme-linked immunosorbent assay.

A further assay addresses T2, Trop2 protein (UniProt P09758 27-274).
T2 construct: Bought recombinant protein; also called Trop2-Biotin protein (biotin-labelled, bridging ELISA)
T2 sequence (looked up): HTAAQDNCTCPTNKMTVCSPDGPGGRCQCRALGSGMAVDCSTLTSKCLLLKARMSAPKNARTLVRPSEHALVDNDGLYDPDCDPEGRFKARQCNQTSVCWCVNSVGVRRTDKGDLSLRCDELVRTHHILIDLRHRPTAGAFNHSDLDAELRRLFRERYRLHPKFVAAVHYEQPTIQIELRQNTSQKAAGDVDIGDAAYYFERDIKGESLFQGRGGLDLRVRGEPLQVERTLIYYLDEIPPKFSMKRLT
Nature of the assay: ELISA, coated Trop2 protein, OD450.
Excerpt: as §1
(2) Trop2 protein (purchased from Acro) was diluted to 2 μg/ml with PBS buffer, added to a 96-well plate at a volume of 100 μL/well, and placed at 4° C. overnight. The PBS buffer in the 96-well plate was aspirated, and the plate was washed 6 times with PBST (pH 7.2 PBS containing 0.1% Tween 20) buffer. Then, 200 μL/well PBS/10% BSA was added and incubated at 37° C. for 2 h for blocking. The blocking solution was removed, and the plate was washed six times with PBST. Then, the to-be-tested bispecific antibodies, Cross3×Trop2, Cross303×Trop2, Cross307×Trop2, Cross308×Trop2, Cross309×Trop2, Cross310×Trop2, Cross311×Trop2, Cross312×Trop2, Cross313×Trop2, Cross314×Trop2, Cross316×Trop2, Cross317×Trop2, Cross318×Trop2, Cross323×Trop2, Cross325×Trop2, Cross326×Trop2, and control IgG1LALA (purchased from Bio-Tech), serially diluted with PBST/0.05% BSA, were added at 100 μL/well and incubated at 37° C. for 1 h. The reaction system was removed, and the plate was washed 6 times with PBST. Then, HRP (horseradish peroxidase)-labeled anti-human secondary antibody (Fab specific) (purchased from Sigma) diluted with PBST/0.05% BSA at 100 μL/well. After the plate was washed six times with PBST, TMB (tetramethylbenzidine) was added at 80 μL/well, and incubated at room temperature for 3 min. 4 M sulfuric acid was added at 80 μL/well to terminate the reaction. The absorbance was read at 450 nm using a microplate reader.

In assay [1] the target is T3, Trop2 on A-375-Trop2 melanoma cells (UniProt P09758 27-323, limits assumed).
T3 construct: whole, on cells
T3 sequence (looked up): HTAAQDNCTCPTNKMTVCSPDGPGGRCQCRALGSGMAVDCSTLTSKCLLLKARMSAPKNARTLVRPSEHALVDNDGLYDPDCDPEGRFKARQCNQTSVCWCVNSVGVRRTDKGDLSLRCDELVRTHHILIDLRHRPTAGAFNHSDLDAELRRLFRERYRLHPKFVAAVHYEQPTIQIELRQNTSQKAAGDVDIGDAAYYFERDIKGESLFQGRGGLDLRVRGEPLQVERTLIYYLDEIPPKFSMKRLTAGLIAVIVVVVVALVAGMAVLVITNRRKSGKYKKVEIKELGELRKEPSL
The experiment in a line: flow cytometry, A-375-Trop2 cells, MFI [panel B]. As to the method:
(§2) (2) The tumor cells were diluted to 2×10⁶/ml with PBS and added to a 1.5 ml EP tube at a volume of 100 μl/tube, and goat serum was added thereto at 10 μl/tube. The cells were blocked at 4° C. for 30 min. The serially diluted bispecific antibodies, Cross3×Trop2, Cross303×Trop2, Cross307×Trop2, Cross308×Trop2, Cross309×Trop2, Cross310×Trop2, Cross311×Trop2, Cross312×Trop2, Cross313×Trop2, Cross314×Trop2, Cross316×Trop2, Cross317×Trop2, Cross318×Trop2, Cross323×Trop2, Cross325×Trop2, Cross326×Trop2, and Cross3×PDL1, Cross303×PDL1, Cross307×PDL1, Cross308×PDL1, Cross309×PDL1, Cross310×PDL1, Cross311×PDL1, Cross312×PDL1, Cross313×PDL1, Cross314×PDL1, Cross316×PDL1, Cross317×PDL1, Cross318×PDL1, Cross323×PDL1, Cross325×PDL1, Cross326×PDL1, and control hIgG1LALA (purchased from Bio-Tech) were added and incubated at 4° C. for 30 min. 1 ml of PBS was added to the EP tube, followed by centrifugation at 3500 rpm for 5 min at 4° C. The supernatant was discarded, and the cells were washed again with PBS. After centrifugation, the supernatant was completely discarded, and the cells were resuspended with PBS at 100 μl/tube. Alexa-647-labeled goat anti-human IgG secondary antibody (purchased from Jackson lab) was added at 1 μl/tube and incubated at 4° C. in the dark for 30 min. The cells were washed twice with PBS, and the supernatant was completely discarded after centrifugation. The cells were resuspended with PBS at 200 μl/tube and assay was performed using the flow cytometry.

A further assay concerns the target T4, PDL1 protein (UniProt Q9NZQ7 19-238).
T4 construct: Bought recombinant protein
Nature of the assay: ELISA, coated PDL1 protein, OD450 [panel A]. Summed up: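 PDL1 protein coated at 2 μg/ml overnight at 4 °C, blocked with PBS/10% BSA; serially diluted bispecific antibodies or control IgG1LALA bound 1 h at 37 °C. Detection with HRP anti-human Fab secondary antibody and TMB for 3 min, stopped with sulfuric acid, absorbance at 450 nm.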

For assay [2], the target named is T5, PDL1 on A-375 melanoma cells, HCT-15 colorectal cancer cells and A549 lung cancer cells (UniProt Q9NZQ7 19-290, limits assumed).
T5 construct: whole, on cells
The experiment in a line: flow cytometry, A549 cells, MFI [panel B]. Summed up: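 Cells were blocked with goat serum at 4° C for 30 min, then incubated with serially diluted bispecific antibodies or hIgG1LALA control at 4° C for 30 min. Bound antibody was detected with Alexa-647 anti-human IgG (4° C, 30 min, dark) and read by flow cytometry.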

In assay [3] the target is T5, PDL1 on A-375 melanoma cells, HCT-15 …. Nature of the assay: flow cytometry, A-375 cells, binding ratio % [panel A]. The protocol:
as §2
In general terms: In flow cytometry, cells or beads pass a laser one at a time.

For assay [4] the target is unchanged. The experiment in a line: flow cytometry, HCT-15 cells, binding ratio % [panel A]. As to the method: as §2, with “The cells were resuspended with PBS at 200 μl/tube and assay was performed using the flow cytometry.” left out

T5 sequence (Q9NZQ7 19-290 limits assumed): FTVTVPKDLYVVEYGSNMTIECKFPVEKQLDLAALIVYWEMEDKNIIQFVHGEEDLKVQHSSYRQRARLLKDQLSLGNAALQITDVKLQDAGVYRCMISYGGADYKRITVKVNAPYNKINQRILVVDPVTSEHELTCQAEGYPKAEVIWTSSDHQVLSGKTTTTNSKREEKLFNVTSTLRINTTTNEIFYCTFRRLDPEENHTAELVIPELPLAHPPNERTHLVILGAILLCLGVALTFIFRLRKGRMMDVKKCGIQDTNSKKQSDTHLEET
T4 sequence (Q9NZQ7 19-238 limits assumed): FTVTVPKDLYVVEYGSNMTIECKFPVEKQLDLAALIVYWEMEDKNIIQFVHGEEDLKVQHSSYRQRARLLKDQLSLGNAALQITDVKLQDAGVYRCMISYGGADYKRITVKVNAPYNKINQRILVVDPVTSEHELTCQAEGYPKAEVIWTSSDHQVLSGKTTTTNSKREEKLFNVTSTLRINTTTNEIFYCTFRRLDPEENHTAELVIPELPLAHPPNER
T1 sequence (chain, as listed by the source limits assumed, chain 1 of 2): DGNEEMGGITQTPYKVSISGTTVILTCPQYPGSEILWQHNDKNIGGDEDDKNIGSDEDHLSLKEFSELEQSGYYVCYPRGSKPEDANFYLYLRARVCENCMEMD
T1 sequence (P04234 22-105 limits assumed, chain 2 of 2): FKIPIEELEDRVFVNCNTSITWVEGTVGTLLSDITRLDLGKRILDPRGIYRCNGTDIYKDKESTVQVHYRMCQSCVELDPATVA

B1: Cross317×Trop2 (bispecific antibody)
scFv: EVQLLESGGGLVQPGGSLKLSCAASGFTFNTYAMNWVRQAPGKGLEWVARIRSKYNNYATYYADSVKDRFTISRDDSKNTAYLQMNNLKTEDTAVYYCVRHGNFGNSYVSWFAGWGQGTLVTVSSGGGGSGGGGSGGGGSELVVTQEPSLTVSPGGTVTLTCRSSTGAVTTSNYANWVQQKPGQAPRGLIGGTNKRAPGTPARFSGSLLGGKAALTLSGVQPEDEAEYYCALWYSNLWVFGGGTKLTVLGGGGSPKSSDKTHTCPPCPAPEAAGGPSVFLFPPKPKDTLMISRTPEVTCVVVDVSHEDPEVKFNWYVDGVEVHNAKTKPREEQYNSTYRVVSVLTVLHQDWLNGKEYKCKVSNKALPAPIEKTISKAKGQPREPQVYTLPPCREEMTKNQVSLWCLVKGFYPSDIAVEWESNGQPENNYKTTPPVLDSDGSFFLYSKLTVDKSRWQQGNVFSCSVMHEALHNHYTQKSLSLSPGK
heavy: QVQLQQSGSELKKPGASVKVSCKASGYTFTNYGMNWVKQAPGQGLKWMGWINTYTGEPTYTDDFKGRFAFSLDTSVSTAYLQISSLKADDTAVYFCARGGFGSSYWYFDVWGQGSLVTVSSASTKGPSVFPLAPSSKSTSGGTAALGCLVKDYFPEPVTVSWNSGALTSGVHTFPAVLQSSGLYSLSSVVTVPSSSLGTQTYICNVNHKPSNTKVDKKVEPKSSDKTHTCPPCPAPEAAGGPSVFLFPPKPKDTLMISRTPEVTCVVVDVSHEDPEVKFNWYVDGVEVHNAKTKPREEQYNSTYRVVSVLTVLHQDWLNGKEYKCKVSNKALPAPIEKTISKAKGQPREPQVCTLPPSREEMTKNQVSLSCAVKGFYPSDIAVEWESNGQPENNYKTTPPVLDSDGSFFLVSKLTVDKSRWQQGNVFSCSVMHEALHNHYTQKSLSLSPGK
light: DIQLTQSPSSLSASVGDRVSITCKASQDVSIAVAWYQQKPGKAPKLLIYSASYRYTGVPDRFSGSGSGTDFTLTISSLQPEDFAVYYCQQHYITPLTFGAGTKVEIKRTVAAPSVFIFPPSDEQLKSGTASVVCLLNNFYPREAKVQWKVDNALQSGNSQESVTEQDSKDSTYSLSSTLTLSKADYEKHKVYACEVTHQGLSSPVTKSFNRGEC
A word on the EC50 (read off the curve): it is the concentration giving half of the maximal effect. As for B1, the results for the concentration giving a half-maximal response (EC50 (read off the curve)) (in the assay with CD3E&D protein; with Trop2 protein; in assay [1]) were around 1 µg/mL, around 0.008 µg/mL and around 1 µg/mL, respectively.

B2: Cross309×PDL1 (bispecific antibody, human IgG1, kappa, L234A L235A)
scFv: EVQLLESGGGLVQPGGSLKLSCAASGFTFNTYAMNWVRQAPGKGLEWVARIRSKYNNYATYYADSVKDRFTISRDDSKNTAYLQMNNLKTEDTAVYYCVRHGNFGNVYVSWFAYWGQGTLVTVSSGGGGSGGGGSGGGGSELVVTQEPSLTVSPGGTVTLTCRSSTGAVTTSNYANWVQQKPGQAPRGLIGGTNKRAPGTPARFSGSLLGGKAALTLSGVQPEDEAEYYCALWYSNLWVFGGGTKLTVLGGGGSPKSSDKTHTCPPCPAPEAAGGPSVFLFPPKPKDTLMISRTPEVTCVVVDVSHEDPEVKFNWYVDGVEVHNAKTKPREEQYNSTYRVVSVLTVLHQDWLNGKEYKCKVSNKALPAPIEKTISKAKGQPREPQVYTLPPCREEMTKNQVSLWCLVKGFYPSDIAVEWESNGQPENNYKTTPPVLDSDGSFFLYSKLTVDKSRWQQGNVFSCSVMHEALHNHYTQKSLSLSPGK
heavy: QVQLVQSGAEVKKPGASVKVSCKASGYSFTGYYMHWVRQAPGQGLEWIGRINPYNGATTYSQNFKDRATMTVDTSISTAYMELSRLRSDDTAVYYCVPTGMGYFLMDYWGQGTLVTVSSASTKGPSVFPLAPSSKSTSGGTAALGCLVKDYFPEPVTVSWNSGALTSGVHTFPAVLQSSGLYSLSSVVTVPSSSLGTQTYICNVNHKPSNTKVDKKVEPKSCDKTHTCPPCPAPEAAGGPSVFLFPPKPKDTLMISRTPEVTCVVVDVSHEDPEVKFNWYVDGVEVHNAKTKPREEQYNSTYRVVSVLTVLHQDWLNGKEYKCKVSNKALPAPIEKTISKAKGQPREPQVCTLPPSREEMTKNQVSLSCAVKGFYPSDIAVEWESNGQPENNYKTTPPVLDSDGSFFLVSKLTVDKSRWQQGNVFSCSVMHEALHNHYTQKSLSLSPGK
light: DIQLTQSPSFLSASVGDRVTITCKASQDVGSAVVWYQQKPGKAPKLLIYWASTRHTGVPSRFSGSGSGTEFTLTISSLQPEDFATYFCQQFTSYPTFGQGTKLEIKRTVAAPSVFIFPPSDEQLKSGTASVVCLLNNFYPREAKVQWKVDNALQSGNSQESVTEQDSKDSTYSLSSTLTLSKADYEKHKVYACEVTHQGLSSPVTKSFNRGEC
Consider B2, for which the “EC50 (read off the curve)” value with PDL1 protein was around 0.2 µg/mL; in assay [2], around 1 µg/mL; in assay [3] it was around 0.4 µg/mL.

B3: Cross310×PDL1 (bispecific antibody, human IgG1, kappa, L234A L235A)
scFv: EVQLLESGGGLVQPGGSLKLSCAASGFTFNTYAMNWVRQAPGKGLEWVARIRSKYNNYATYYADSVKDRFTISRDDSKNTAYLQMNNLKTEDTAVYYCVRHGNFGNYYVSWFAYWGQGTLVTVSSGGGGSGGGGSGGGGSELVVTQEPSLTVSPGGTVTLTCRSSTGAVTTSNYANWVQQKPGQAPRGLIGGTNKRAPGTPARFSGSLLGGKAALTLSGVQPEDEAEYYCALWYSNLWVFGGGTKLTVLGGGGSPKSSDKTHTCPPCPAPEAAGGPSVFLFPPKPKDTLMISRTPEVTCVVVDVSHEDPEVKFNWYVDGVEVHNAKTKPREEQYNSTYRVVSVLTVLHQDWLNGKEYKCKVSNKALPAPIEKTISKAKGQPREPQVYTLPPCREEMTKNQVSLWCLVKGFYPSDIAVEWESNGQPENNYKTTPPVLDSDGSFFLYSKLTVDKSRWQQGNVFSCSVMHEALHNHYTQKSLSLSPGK
heavy: B2 heavy
light: B2 light
Take B3: the “EC50 (read off the curve)” value with PDL1 protein was around 0.5 µg/mL; in assay [2], around 2 µg/mL; in assay [3] it was around 0.7 µg/mL; in assay [4] it was around 0.7 µg/mL.
